Results published in the DeepSol protein solubility set.

Experiment: soluble on expression in E. coli; label from the status in PepcDB or PDB records

Sequence	soluble on expression in E. coli
GSSGSSGHESETTTSLVLERSLNRVHLLGRVGQDPVLRQVEGKNPVTIFSLATNEMWRSGDSEVYQLGDVSQKTTWHRISVFRPGLRDVAYQYVKKGSRIYLEGKIDYGEYMDKNNVRRQATTIIADNIIFLSDQTKEKE	soluble
MGSDKIHHHHHHMEIIAGYRTTSDSRYIALIKADGNNAGKIFGNTVTFSEYVDKSFRLDFGVKKMFYDTLLDIMRASSDESIKKDLVSRILLGVLYLGGDDIMLLSPSAIAVPFAVKMFKRSLEYTGFTFKVGIISVKPDHPVQFAYGAVNALMEESKIHTGEKSSIGVLVFSSTLASEGVVKSDLKNYRKEKESFLVVSNDVDDVERLLNLMELDDFGKLMELYWNPEEGRKVIRDKIRSLERFVNYADTHDFYNTLAYLIRSKAKSEENSLIKRIIDLTIKGRDDFVFPLYDYYFILKSIRVGI	not soluble
GSELETAMETLINVFHAHSGKEGDKYKLSKKELKELLQTELSGFLDAQKDADAVDKVMKELDEDGDGEVDFQEYVVLVAALTVACNNFFWENS	soluble
SNAIGLIITALPEPYWIVLHDRIVNVISSSSLTSETEWVGYPFRLFDFTACHQSYSEMSCSYTLALAHAVWHHSSIGQLSLIPKFLTEALLPVVKTEFQLLYVYHLVGPFLQRFQQERTRCMIEIGVAFYDMLLNVDQCSTHLNYMDPICDFLYHMKYMFTGDSVKEQVEKIICNLKPALKLRLRFITHISKMEPAVPPQALNSGSPAPQSNQVPASLPVTQ	soluble
MTEVYDLEITTNATDFPMEKKYPAGMSLNDLKKKLELVVGTTVDSMRIQLFDGDDQLKGELTDGAKSLKDLGVRDGYRIHAVDVTGGNEDFKDESMVEKYEMSDDTYGKRTDSVRAWKKKMQEEQGSAAPMENESDKLNEEAAKNIMVGNRCEVTVGAQMARRGEVAYVGATKFKEGVWVGVKYDEPVGKNDGSVAGVRYFDCDPKYGGFVRPVDVKVGDFPELSIDEI	soluble
MTGKSVREVPMTEEILAESIALRLRRDILRGKLVPGTSIKERDNAAEMGVSRTPMREAIRILANEGLVQLRPSRSPIVTQLSLNEVVSFIEVLSALEMLAVTLACERATKIDIAHVRGAERKLATQYDRIDQVERFELDMDFHIALTRASHNQALSDTHMSYLRRLWYARFQSARNRHTKDRVLQQHAALVDAIERRDPTMAQTELSSHLENLRINVHAYFERAEREQLQLKNSA	not soluble
MGSDKIHHHHHHMPALAHRRSDIASGTRTTALTDHRFRGRITSFTRQVPKLMNKQQGNTPVHIWRVDFEGMEMRTTSSDGIHVWIARDDVMEALQIPDPGYALSFVTPEDQAALSSGTDVPDEEDEPDGLPMINEIAVYEIMARFPTPPTGRFKPWLLRLRHLFFELMTRDDEATFLLQ	not soluble
MRTELLSKLYDDFGIDQLPHTQHGVTSDRLGKLYEKYILDIFKDIESLKKYNTNAFPQEKDISSKLLKALNLDLDNIIDVSSSDTDLGRTIAGGSPKTDATIRFTFHNQSSRLVPLNIKHSSKKKVSIAEYDVETICTGVGISDGELKELIRKHQNDQSAKLFTPVQKQRLTELLEPYRERFIRWCVTLRAEKSEGNILHPDLLIRFQVIDREYVDVTIKNIDDYVSDRIAEGSKARKPGFGTGLNWTYASGSKAKKMQFKG	soluble
GDYIYADSNNNGVYGDDNDYTFQKTSNKPKYNFGFQASAAWKGFDLSMVWAGAAGFSIYWGATTGYNAASTEWGSTIAQRVAENHYFYNPENPDDPRTNINAKYPRMAYIDGYVQNRHGNTTLWLYKGDYIKLKNLSLGYTLPKNWVSKIAMQNARVYVSAENLLTITGFEGQDPESATGMGYSPFRTIAIGANITF	not soluble
MGSDKIHHHHHHMQIEMTGITKAFGPVPVLKGVDFTLATGEIHALMGENGAGKSTLMKILTGVHKADQGTILVDGVEQQYKNPKLAEEAGIAFIHQELNILPDLTVTENLFLGRELKSRFGVLKQAEMKRLAERELAELNVFMDVNQLARTLSVGQQQMIEIAKALMTDAKVIIMDEPTAALTEREIRALFSVATALREQGVSIVYISHRMEEIFELCDRITVLRDGVSVSTHRIADTSFEQIVREMVGREMGERYPERQVTLGQTVLEVTGATGKRFEDVSFSVRAGEIVGFSGLMGAGRTEVMRGLFGIDRMKAGTISLNGKTIKIKSPHDAIKQGLGFLTEDRKGEGLFLDFSLRENISLPTIRSLSKSGVISDQSERQFAEGYLKSLSVRHSSMDQPAKSLSGGNQQKVVLAKWLGTKPDVLILDEPTRGVDVGAKKEIYMIMDELAATGVAIIMISSDLPEILGMSDRVYVMREGQMSGMLNQEEATQESIMTLATGGQ	not soluble
MGHHHHHHSHMYFVGCGYNAFPVGSEYADFPHMDDKQKDREIRKFRYIIHAEQNALTFRCQEIKPEERSMIFVTKCPCDECVPLIKGAGIKQIYAGDVDVGKKKADISYMRFGELEGVSKFTWQLNPSGAYGLEQNEPERRERDLSHRRKSSTRTRSCASESTKKACLHCRGTSRTFHCTSKIQPCSFRK	not soluble
MGSDKIHHHHHHMTKHNKAYKFRLYPTGDQAHLMRKTFGCVRFVYNRMLAERKEAYEKHKDDKEQLKKQKLPTPAKYKAEFEWLKEVDSLALANAQLNLQTAYKNFFRGQNDFPTFKSKKDRKSYTTNVVNGNIMLLNGHIKLPKLKMVRIKQHREIPQDHVIKSCTISMTPTGKYYVSILTEYEKEIVQNEVETVVGLDFAMDRLYVSSEDERANYPKFYREMLDRLAKAQRVLSRRTKGSIRWNKQRIRVAKLHEKVANQRKNFLHHKSKELATHFDVVAIEDLNMKGMSQALHFGKSVADNAWGMFTSFLAYKLHEQGKQLMKIDKWFPSTKTCSSCGNVKNMSLSERVYSCICGVNLDRDYNAAINIKNEAIRLLALA	not soluble
MDEFEMIKRNTSEIISEEELREVLKKDEKSAIIGFEPSGKIHLGHYLQIKKMIDLQNAGFDIIILLADLFAYLNQKGELDEIRKIGDYNKKVFEAMGLKAKYVYGSSFMLDKDYTLNVYRLALKTTLKRARRSMELIAREDENPKVAEVIYPIMQVNPLHYEGVDVAVGGMEQRKIHMLARELLPKKVVCIHNPVLTGLDGEGKMSSSKGNFIAVDDSPEEIRAKIKKAYCPAGVVEGNPIMEIAKYFLEYPLTIKRPEKFGGDLTVNSYEELESLFKNKELHPMDLKNAVAEELIKILEPIRKRLLEHHHHHH	soluble
MKKQKLSGAEGFESYYLSIFGERWQSLKAALLEERKPEAYSENLIQNYYLDYASIQAARAMPVLEEGSCLDMCAAPGGKTLVLLSRIKENAEIQANELSADRRNRLIRVLDEHLSEETRKRIRVSSYDASRMPRYGQELYDRILLDAPCSSERHVLQNEKYLKQWTEARIKNLSQRQWALLSAAFLLLKPKGFLVYSTCALADEENDFLIEKLIKKYKEKVRLEEKLDGLGPISPEKTRYGFRFLPDKAEGAGPIYFSLIQKN	not soluble
MAHHHHHHMRVYECDFYSHPAVCKYRLPKPYRHPTLDKRLREQRSVREARALVRCQKQGIAVPAVYAIDRESCAIVMERIIGMSVRDVLNEAQRPLEGAVSPVAARLLEGMGEVVGLLHNAHIIHGDLTTSNFMYRTATVAEGKADSAACGAAPRDRLVVLDFGLVMDKNSAEERAVDLYVLERAIKSSHPSLEGVASAFILNGYRRTADPHQVEATITRLGAVRARGRKRSMVG	not soluble
MSLLTVGIVDDNPRDLEKLELIVNNMENVELILKANSADEVYHSIQKTPVDLLITDIEMPGMSGYQLADFIQLNNMKTAVIFVTAKSGYAVHAFELNVHDYILKPFNPDRLIQSIDRFTEKKDAGRVTGRLFIRSDGDLVVVPKAEIIFLERTGRTTTIHTINETYETYQSLGELEGDIRESMFIRSHRSFIINLQYVKRFASYSKKSFVVIFEGSSGKALVTKEKLKYLQENYEGHHHHHH	not soluble
MASAVGEKMLDDFEGVLNWGSYSGEGAKVSTKIVSGKTGNGMEVSYTGTTDGYWGTVYSLPDGDWSKWLKISFDIKSVDGSANEIRFMIAEKSINGVGDGEHWVYSITPDSSWKTIEIPFSSFRRRLDYQPPGQDMSGTLDLDNIDSIHFMYANNKSGKFVVDNIKLIGALEHHHHHH	soluble
MLRLSAPGQLDDDLCLLGDVQVPVFLLRLGEASWALVEGGISRDAELVWADLCRWVADPSQVHYWLITHKHYDHCGLLPYLCPRLPNVQVLASERTCQAWKSESAVRVVERLNRQLLRAEQRLPEACAWDALPVRAVADGEWLELGPRHRLQVIEAHGHSDDHVVFYDVRRRRLFCGDALGEFDEAEGVWRPLVFDDMEAYLESLERLQRLPTLLQLIPGHGGLLRGRLAADGAESAYTECLRLCRRLLWRQSMGESLDELSEELHRAWGGQSVDFLPGELHLGSMRRMLEILSRQALPLD	not soluble
MIPEQRREQILRQLRKHQVLSVHQLMEMFDCSHMTVRRDIALLEQEGRAHSVTGGVRIASQLHSEPSHQSKAVVELPQKQAMAKLAASLLHADMTVYLDAGTSTLEIVHYIKALSGMTVVTNDFGVAQALMDAPQVTVIHTGGQLDHSNHSCVGGLAVATLRQVVTDVAFISTSSWDLRRGITTPSALKVEVKQVAMQSATQVVLVASSSKYGTFSMYKIAGLEQFDIIISDAALAPAAADGIRKHGVELLLPAQSLEHHHHHH	not soluble
MGSSHHHHHHSSGLVPRGSHMPLYYRSIIEEHMAVRKHVGIFDVSHMGDVTVSGKDASAFLDHMFPTKVSNLKNGECVYTAFLNDSGLMIDDTIVYRMGEDSYFFVPNAGTTEKIYRWVSDHSAGYSVKIENVSNRISSIALQGPESEEVLNELGFSYPGYFKFQYVSGKYMNAITGKDQIIISGTGYTGEKGVEFIIPNEHAVELWKKLLEAINKRNGLPAGLGARDTLRMEKGMLLSGHDFNEDRDPYEASVSFIVNNDEDFVGKKNLEIRRRSDHEIFRGFVLSDGIPRNGNPIKAGGKRVGTVTSGTISPVLNKGIALGYIDKAYSKENTEVMIEIRSVDHKAVVTKPRIVK	soluble
MVRFRREGVRLDQAVAEALSVSRAKAQAWIQAGRVRVGDRVVLKPAYRLKGEEVAVEPVEEAPMVLPEDLPIPILYEDEDVLALNKPPGLLTHPAPGVYSGTVVNLLLARYYGPVEKGPPELVRPGIVHRLDKDTSGVLVVAKHGGDLEGLARAFRDRLVMKRYLAITEGHPREGVLIAPIGRHPRERHKMHVGGLAARYAETEFQVLATAGPYALVEARPHTGRTHQIRVHLKYLGAPILGDELYGRKSPHIGRQALHAYELRIPHPRTGRILELLAPVPQDMAAAWEALGGRWPEEVVREGYAGAQ	soluble
AIAAHVRTYNPRVRVGNWKEDVTLEEETSKEFILQKDRGELTVQKEGALKQSILKPVSLSVSQDGFLHFGDTVMLVNCGDGGHMQRSPCVLSIIADSSNVTSHSQTNTGPHLLGPLQVGGAHSMDPCVRNTFIIISVDGSSDGEVVRYDQSFALKTTGGFAGELFLASDHKSFQKCAKKSRLQELSLVEEFDFLCWWKVLYFDPQDRLENEGYPVQVNNKVLISHCKTNQCLAALSNHILWSQFGKEYELTAHTFLDSHKAEQDNNHWLFSTAHPANQSQSLLQLQQEEHKENQEDTQVKDCS	soluble
GMSNKKLIINADDFGYTPAVTQGIIEAHKRGVVTSTTALPTSPYFLEAMESARISAPTLAIGVHLTLTLNQAKPILPREMVPSLVDEAGYFWHQSIFEEKVNLEEVYNEWDAQIISFMKSGRRPDHIDSHHNVHGKNKKLLGVALALARKYQLPLRNASRSIETKDYLELYQDVRTPDEMLYQFYDKAISTETILQLLDMVVCSEGEVFEINCHPAFIDTILQNQSGYCMPRIREVEILTSQEVKEAIEERGILLANYESLAM	soluble
